The experiment has as its target EGFR^K642G-mEGFP (UniProt P00533). The experiment can be described thus: number and brightness.

“And” between values parts separate entries of the source, which are not always exact repeats. Identical values can stand only once.

On to “EGFR^K642G-mEGFP (from UniProt P00533) (receptor)”, for which the apparent brightness BE was 4.11 and 4.73 and 5.53.

Source of the values: PMC9748371.
